What was measured:
[1] = molecular target: Sr35 (Triticum monococcum) (UniProt S5ABD6); assay: cryo-EM structure
[2] = molecular target: Sr35 (Triticum monococcum) (UniProt S5ABD6); assay: MST
[3] = molecular target: 6×His-tagged AvrSr35 (residues 27 to 578) (Puccinia graminis f. sp. tritici); assay: AUC

6×His-tagged AvrSr35 (residues 27 to 578) (natural protein)
stoichiometry N [1]: 1 | Kd [2]: 7.8 µM | stoichiometry N [3]: 2
